Assay results taken from patent US20230159643A1.

Target: Sortilin SORTECD_HIS (human) (UniProt Q99523)
Assay: HTRF: displacement of PGRN binding to His-tagged Sortilin ECD

Sequence of Sortilin SORTECD_HIS (human) (Q99523 other isoform, or with tags, fused parts or gaps limits assumed): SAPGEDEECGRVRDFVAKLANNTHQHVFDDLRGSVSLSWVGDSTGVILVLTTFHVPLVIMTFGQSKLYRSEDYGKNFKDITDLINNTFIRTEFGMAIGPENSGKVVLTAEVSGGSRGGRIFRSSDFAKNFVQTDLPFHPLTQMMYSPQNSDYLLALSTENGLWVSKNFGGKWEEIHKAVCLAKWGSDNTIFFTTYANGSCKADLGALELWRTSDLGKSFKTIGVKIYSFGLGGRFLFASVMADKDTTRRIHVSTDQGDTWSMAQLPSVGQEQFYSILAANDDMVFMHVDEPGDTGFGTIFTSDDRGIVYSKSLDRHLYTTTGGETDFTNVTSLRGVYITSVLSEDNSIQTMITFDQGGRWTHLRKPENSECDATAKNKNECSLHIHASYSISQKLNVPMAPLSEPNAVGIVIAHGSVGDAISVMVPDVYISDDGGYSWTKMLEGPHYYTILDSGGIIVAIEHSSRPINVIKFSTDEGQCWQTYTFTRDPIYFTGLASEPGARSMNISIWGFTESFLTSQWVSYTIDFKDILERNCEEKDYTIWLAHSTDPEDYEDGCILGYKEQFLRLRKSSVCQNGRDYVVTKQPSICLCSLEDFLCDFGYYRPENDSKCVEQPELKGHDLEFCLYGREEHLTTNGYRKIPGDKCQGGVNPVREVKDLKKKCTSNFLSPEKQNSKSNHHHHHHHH

In the case of IgG1-b12 (antibody), the IC50 is reported as > 1 µM.
